From publication PMC6035287

Target: bovine brain tubulin (free tubulin) (bovine) (UniProt Q6B856)
Test: ITC; TOG domain proteins in the syringe (150 μM CLASP2 TOG1, TOG2, TOG3; 200 μM CLIP-ID; 250 μM Stu2 TOG1), 15 μM bovine brain tubulin in the cell; BRB80 with 50 mM NaCl, 25°C; one set of sites model

B1: Stu2 TOG1 (domain or fragment)
chain: MSGEEEVDYTTLPLEERLTYKLWKARLEAYKELNQLFRNSVGDISRDDNIQIYWRDPTLFAQYITDSNVVAQEQAIVALNSLIDAFASSSLKNAHNITLISTWTPLLVEKGLTSSRATTKTQSMSCILSLCGLDTSITQSVELVIPFFEKKLPKLIAAAANCVYELMAAFGLTNVNVQTFLPELLKHVPQLAGHGDRNVRSQTMNLIVEIYKVTGNNSDLLEEILFKKLKPIQVKDLHKLFAKVGDEPSSSKMLFEWEKRELEKKRSQEEEA
- Kd: 18.8 nM
